Measured values taken from PMC3937224, “Convergence of Light and ABA Signaling on the ABI5 Promoter” (PLoS Genetics, 2014).
Blank lines part the entries; values can stand above or below the binder they belong to.

Key:
GST-HY5 = target: T1, GST-HY5 (Arabidopsis thaliana, UniProt O24646 1-168); test: EMSA; 0.5 ug protein; no BBX21; 10 mM Tris-HCl (pH not stated), 150 mM KCl, 1 mM DTT, 50 ng/ml poly(dI-dC), 2.5% glycerol, 0.05% NP-40, 100 mM ZnCl2 (so in the source), 0.5 ug/ml BSA, 20 min at room temperature; 6% native PAGE; conditions: protein: recombinant; tags: N-terminal GST (pGEX-6P-1, printed pEGX-6P-1); chain copies: 2; label: 5' biotin; blunt (complementary oligonucleotides; second strand not seen in material)
T1 sequence: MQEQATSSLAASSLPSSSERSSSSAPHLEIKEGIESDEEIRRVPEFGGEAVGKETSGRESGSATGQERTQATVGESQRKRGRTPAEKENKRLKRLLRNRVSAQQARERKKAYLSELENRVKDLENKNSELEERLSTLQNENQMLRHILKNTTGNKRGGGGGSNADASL

6xHis-BBX21 (STH2) = target: T2, 6xHis-BBX21 (STH2) (Arabidopsis thaliana, UniProt Q9LQZ7 1-331); test: EMSA; 10 mM Tris-HCl (pH not stated), 150 mM KCl, 1 mM DTT, 50 ng/ml poly(dI-dC), 2.5% glycerol, 0.05% NP-40, 100 mM ZnCl2 (so in the source), 0.5 ug/ml BSA, 20 min at room temperature; 6% native PAGE; conditions: protein: recombinant; tags: 6xHis; label: 5' biotin; blunt (complementary oligonucleotides; second strand not seen in material)
T2 sequence: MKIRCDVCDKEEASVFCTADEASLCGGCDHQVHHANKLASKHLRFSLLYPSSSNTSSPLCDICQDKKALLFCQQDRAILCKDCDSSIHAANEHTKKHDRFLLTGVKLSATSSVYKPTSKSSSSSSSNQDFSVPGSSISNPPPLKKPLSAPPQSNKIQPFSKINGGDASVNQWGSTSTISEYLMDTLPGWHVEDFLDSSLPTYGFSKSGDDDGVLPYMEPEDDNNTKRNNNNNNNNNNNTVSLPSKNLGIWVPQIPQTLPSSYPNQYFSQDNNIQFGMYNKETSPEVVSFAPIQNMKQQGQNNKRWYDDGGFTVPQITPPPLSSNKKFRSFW

GST-ABI5 = target: T3, GST-ABI5 (Arabidopsis thaliana, UniProt Q9SJN0 1-442); test: pull-down; 2 µg 6×His-BBX21 bound to Ni-NTA magnetic beads (2 h, 4°C), incubated overnight at 4°C with 2 µg GST or GST-ABI5; wash with 10 mM Tris pH 8.0, 100 mM NaCl, 0.1% Triton X-100, 5 mM imidazol; Western blot with anti-GST; conditions: both partners purified
T3 construct: ABI5 (ABA … 5), Arabidopsis thaliana; Probably made in E. coli like GST and GST-HY5; source: purified
T3 sequence (looked up): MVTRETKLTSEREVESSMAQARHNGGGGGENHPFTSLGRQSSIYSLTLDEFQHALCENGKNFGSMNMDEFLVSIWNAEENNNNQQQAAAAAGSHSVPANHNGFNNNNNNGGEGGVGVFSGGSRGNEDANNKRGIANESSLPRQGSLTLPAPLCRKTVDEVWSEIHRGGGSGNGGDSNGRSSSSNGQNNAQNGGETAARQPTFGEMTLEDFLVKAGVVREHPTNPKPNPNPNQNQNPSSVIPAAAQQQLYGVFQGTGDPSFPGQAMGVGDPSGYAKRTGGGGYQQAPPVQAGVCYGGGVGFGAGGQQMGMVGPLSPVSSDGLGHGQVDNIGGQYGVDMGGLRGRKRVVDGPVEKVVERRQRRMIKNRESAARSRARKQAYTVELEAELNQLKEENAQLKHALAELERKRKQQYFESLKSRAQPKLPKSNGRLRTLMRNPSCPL

B1: ABI5 promoter probe (dsDNA)
DNA 1: GATTCCGAACTTCCATTGGGAGTGCACGTGGACTATTCACTGCATAAGG
DNA 2: CCTTATGCAGTGAATAGTCCACGTGCACTCCCAATGGAAGTTCGGAATC
binding result (GST-HY5): binds
binding result (6xHis-BBX21 (STH2)): no binding

binding result (GST-ABI5): binds
B2: 6×His-BBX21 (natural protein, Arabidopsis thaliana, UniProt Q9LQZ7 1-331, looked up)
chain: T2 sequence
notes: BBX21 (STH2), Arabidopsis thaliana; also called 6×His-tagged BBX21; source: Escherichia coli, purified
